Values quoted from earlier work, collected in PMC9775385.

Biological target: Nter-BsRNaseY N-terminal domain (Bacillus subtilis) (UniProt O31774)

Substance: Nter-BsRNaseY N-terminal domain (from UniProt O31774)
- Kd: 1300 nM
